In patent publication US20100168031:

T1: L(+)-biotinyl-aminohexanoyl-Glu-Asp-Glu-Asp-Asp-Tyr-His-Asn-Pro-Gly-Gly-OH (SEQ ID NO:14) (not fully specified)
T1 chain: EDEDDYHNPGG

T2: L(+)-biotinyl-aminohexanoyl-Cys(H)-Asp-Asp-Tyr-Glu-Phe-Leu-NH2 (SEQ ID NO:25)
T2 chain: CDDYEFL

T3: L(+)-biotinyl-aminohexanoyl-Glu-Ser-Ile-Asp-Asp-Tyr-Val-Asn-Val-Pro-Glu-Gly-OH (SEQ ID NO:13) (not fully specified)
T3 chain: ESIDDYVNVPEG

T4: L(+)-biotinyl-aminohexanoyl-Glu-Glu-Gly-Ala-Pro-Asp-Tyr-Glu-Asn-Leu-Gln-Glu-Leu-Asn (SEQ ID NO:12)
T4 chain: EEGAPDYENLQELN

B1: recombinant full-length human ZAP-70 (Zeta chain-associated protein of 70 kD) with N-terminal hexa-histidine tag (protein)
chain: MPDPAAHLPFFYGSISRAEAEEHLKLAGMADGLFLLRQCLRSLGGYVLSLVHDVRFHHFPIERQLNGTYAIAGGKAHCGPAELCEFYSRDPDGLPCNLRKPCNRPSGLEPQPGVFDCLRDAMVRDYVRQTWKLEGEALEQAIISQAPQVEKLIATTAHERMPWYHSSLTREEAERKLYSGAQTDGKFLLRPRKEQGTYALSLIYGKTVYHYLISQDKAGKYCIPEGTKFDTLWQLVEYLKLKADGLIYCLKEACPNSSASNASGAAAPTLPAHPSTLTHPQRRIDTLNSDGYTPEPARITSPDKPRPMPMDTSVYESPYSDPEELKDKKLFLKRDNLLIADIELGCGNFGSVRQGVYRMRKKQIDVAIKVLKQGTEKADTEEMMREAQIMHQLDNPYIVRLIGVCQAEALMLVMEMAGGGPLHKFLVGKREEIPVSNVAELLHQVSMGMKYLEEKNFVHRDLAARNVLLVNRHYAKISDFGLSKALGADDSYYTARSAGKWPLKWYAPECINFRKFSSRSDVWSYGVTMWEALSYGQKPYKKMKGPEVMAFIEQGKRMECPPECPPELYALMSDCWIYKWEDRPDFLTVEQRMRACYYSLASKVEGPPGSTQKAEAACA
B2: ZAP-70 activated by Lck (protein)
chain: B1 chain
B3: recombinant full-length human Bruton's tyrosine kinase (Btk) (protein)
chain: MAAVILESIFLKRSQQKKKTSPLNFKKRLFLLTVHKLSYYEYDFERGRRGSKKGSIDVEKITCVETVVPEKNPPPERQIPRRGEESSEMEQISIIERFPYPFQVVYDEGPLYVFSPTEELRKRWIHQLKNVIRYNSDLVQKYHPCFWIDGQYLCCSQTAKNAMGCQILENRNGSLKPGSSHRKTKKPLPPTPEEDQILKKPLPPEPAAAPVSTSELKKVVALYDYMPMNANDLQLRKGDEYFILEESNLPWWRARDKNGQEGYIPSNYVTEAEDSIEMYEWYSKHMTRSQAEQLLKQEGKEGGFIVRDSSKAGKYTVSVFAKSTGDPQGVIRHYVVCSTPQSQYYLAEKHLFSTIPELINYHQHNSAGLISRLKYPVSQQNKNAPSTAGLGYGSWEIDPKDLTFLKELGTGQFGVVKYGKWRGQYDVAIKMIKEGSMSEDEFIEEAKVMMNLSHEKLVQLYGVCTKQRPIFIITEYMANGCLLNYLREMRHRFQTQQLLEMCKDVCEAMEYLESKQFLHRDLAARNCLVNDQGVVKVSDFGLSRYVLDDEYTSSVGSKFPVRWSPPEVLMYSKFSSKSDIWAFGVLMWEIYSLGKMPYERFTNSETAEHIAQGLRLYRPHLASEKVYTIMYSCWHEKADERPTFKILLSNILDVMDEES

Key:
[1] = molecular target: T1, L(+)-biotinyl-aminohexanoyl-Glu-Asp-Glu- …
[2] = molecular target: T2, L(+)-biotinyl-aminohexanoyl-Cys(H)-Asp-A …
[3] = molecular target: compounds represented by SEQ ID NO:12, SEQ ID NO:13, SEQ ID NO:14 or SEQ ID NO:25
[4] = molecular target: T3, L(+)-biotinyl-aminohexanoyl-Glu-Ser-Ile- …
[5] = molecular target: T4, L(+)-biotinyl-aminohexanoyl-Glu-Glu-Gly- …
[6] = molecular target: compounds of SEQ ID NO:12; SEQ ID NO: 13; or SEQ ID NO: 14

Row | Protein | phosphorylation of the peptide by the kinase, time resolved fluorescence resonance energy transfer (Eu-anti-phosphotyrosine / SA-APC, 665 nm) [1] | phosphorylation of the peptide by the kinase, time resolved fluorescence resonance energy transfer (Eu-anti-phosphotyrosine / SA-APC, 665 nm) [2] | fluorescence units (TR-FRET phosphorylation assay, 250 nM peptide, 10 nM ZAP-70, 1 µM ATP) [3] | phosphorylation of the peptide by the kinase, time resolved fluorescence resonance energy transfer (Eu-anti-phosphotyrosine / SA-APC, 665 nm) [4] | phosphorylation of the peptide by the kinase, time resolved fluorescence resonance energy transfer (Eu-anti-phosphotyrosine / SA-APC, 665 nm) [5] | phosphorylation of the peptide with 33P-ATP, biotin capture plate, scintillation counting [1] | fluorescence units (TR-FRET phosphorylation assay, 250 nM peptide, 10 nM ZAP-70 plus 42 nM Lck, 1 µM ATP) [3] | phosphorylation of the peptide with 33P-ATP, biotin capture plate, scintillation counting [4] | phosphorylation of the peptide with 33P-ATP, biotin capture plate, scintillation counting [5] | Km (33P-ATP phosphorylation assay, peptide 0.08-20 µM) [6] | Maximal cpm (33P-ATP phosphorylation assay) [6] | phosphorylation of the peptide by the kinase, time resolved fluorescence resonance energy transfer [1] | phosphorylation of the peptide by the kinase, time resolved fluorescence resonance energy transfer [4] | phosphorylation of the peptide by the kinase, time resolved fluorescence resonance energy transfer [5]
1 | B1 | are phosphorylated by ZAP-70 and by ZAP-70 activated by Lck | are phosphorylated by ZAP-70 and by ZAP-70 activated by Lck | 20,000 to 46,000 fluorescence units | are phosphorylated by ZAP-70 and by ZAP-70 activated by Lck | are phosphorylated by ZAP-70 and by ZAP-70 activated by Lck | – | – | – | – | – | – | – | – | –
2 | B2 | are phosphorylated by ZAP-70 and by ZAP-70 activated by Lck | are phosphorylated by ZAP-70 and by ZAP-70 activated by Lck | – | are phosphorylated by ZAP-70 and by ZAP-70 activated by Lck | are phosphorylated by ZAP-70 and by ZAP-70 activated by Lck | are phosphorylated by ZAP-70 | 20,000 to 46,000 fluorescence units | are phosphorylated by ZAP-70 | are phosphorylated by ZAP-70 | Km values are in the range of from 0.4 to 2.0 µM | Maximal cpm range from 12,000 to 16,000 | – | – | –
3 | B3 | – | – | – | – | – | – | – | – | – | – | – | are hardly phosphorylated by Lck, Btk or IRK | are hardly phosphorylated by Lck, Btk or IRK | are hardly phosphorylated by Lck, Btk or IRK
